Biological target: monomeric SARS-CoV-2 RBD (S residues 332-534) with Flag peptide and 8xHis-tag (SARS-CoV-2 (WA1 strain), UniProt P0DTC2 332-534)
Experiment: SPR

| Binder | Kd [nM] |
| --- | --- |
| hcAb 2.1 (Nb 2.1 fused to the human IgG1 hinge and Fc) (Fc fusion) QVQLVESGGGSVQAGGSLRLSCAAFGATISSAHMGWFRQAPGKEREGVAFRYTDGSSTYYTTSVRGRFTISQDNAKNTVYLQMNSLKPEDTAMYYCASNPSWGRLVGGQYNNWGQGTQITVSS | 0.36 |
| Nb 2.1, monomeric nanobody (VHH) VHH: QVQLVESGGGSVQAGGSLRLSCAAFGATISSAHMGWFRQAPGKEREGVAFRYTDGSSTYYTTSVRGRFTISQDNAKNTVYLQMNSLKPEDTAMYYCASNPSWGRLVGGQYNNWGQGTQITVSS | 1.74 |
| Nb 1.16, monomeric nanobody (VHH) VHH: QVQLVESGGGSVQAGGSLRLSCAASGNTSKRKCVGWFRRAPGKEREGVTLIYTVGGSTVYADSVKGRFTISQDNAKDTVYLQMNSLKPEDSAMYYCAAESWGRQCNLETHRFTFWGQGTQVTVSS | 3.59 |
| hcAb 1.16 (Nb 1.16 fused to the human IgG1 hinge and Fc) (Fc fusion) QVQLVESGGGSVQAGGSLRLSCAASGNTSKRKCVGWFRRAPGKEREGVTLIYTVGGSTVYADSVKGRFTISQDNAKDTVYLQMNSLKPEDSAMYYCAAESWGRQCNLETHRFTFWGQGTQVTVSS | 0.25 |
| hcAb 2.20 (Nb 2.20 fused to the human IgG1 hinge and Fc) (Fc fusion) QVQLVESGGGSVQAGGSLRLSCAASGYTYNNYYMGWFRQAPGKEREGVAAINSDGLDTYVADSVKGRFTISRDNAKDTVHLQMNSLKPEDTAIYSCATGRTVYYSGYDFRLSVDDYWGQGTQVTVSS | 0.21 |
| hcAb 1.29 (Nb 1.29 fused to the human IgG1 hinge and Fc) (Fc fusion) QVQLVESGGGSVQAGGSLRLSCAASGYTINTDAVAWFRQAPGKGDERVAVIYTGSGNTNYADSVKGRFTISQDNAKNTVYLQMNSLKPEDTALYYCASGYYGASGYDFNNWGQGTQVTVSS | 0.63 |
| hcAb 1.10 (Nb 1.10 fused to the human IgG1 hinge and Fc) (Fc fusion) QVQLVESGGGSVQAGGSLRLSCAASGYTYSTCRKGWYRQAPGKERELVASITADGATYYLDSVKGRLTISQDNAKNTVYLQMNSLKPEDTAVYYCAASVKDFTCTFNSWGQGTQVTVSS | 0.77 |
| hcAb 1.26 (Nb 1.26 fused to the human IgG1 hinge and Fc) (Fc fusion) QVQLVESGGGLVQAGGSLRLSCAATGYTWSSVCMGWFRQAPGKEREGVAGIPSGRNRPYYADSVKGRFTISQDNAKNAVFLLMNSLKPEDTAIYYCAPCSAPHDPEYNYWGQGTQVTVSS | 0.08 |
| hcAb 2.15 (Nb 2.15 fused to the human IgG1 hinge and Fc) (Fc fusion) QVQLVESGGGSVQAGGSLKLSCAASGYASWARKCIGWFRQAPGQEREGVAAIFDFDGSTYYSDSVKGRFTISGDNAKNTVSLQMNSLLPKDTAVYYCTVAFGTCDNWYRGRGDYWGQGTQVTVSS | 0.08 |
| Nb 2.15, monomeric nanobody (VHH) VHH: QVQLVESGGGSVQAGGSLKLSCAASGYASWARKCIGWFRQAPGQEREGVAAIFDFDGSTYYSDSVKGRFTISGDNAKNTVSLQMNSLLPKDTAVYYCTVAFGTCDNWYRGRGDYWGQGTQVTVSS | 0.39 |
| Nb 2.11, monomeric nanobody (VHH) VHH: QVQLVESGGGSVQAGGSLRLSCAASGDASNRKCVSWFRRAPGKEREGVALIFPVGSSTAYADSVKGRFTISQDSAKDTVYLQMNNLKPEDSGTYYCAAVSWGGRCNLETQTVTFWGQGTQVTVSS | 2.17 |
| hcAb 2.11 (Nb 2.11 fused to the human IgG1 hinge and Fc) (Fc fusion) QVQLVESGGGSVQAGGSLRLSCAASGDASNRKCVSWFRRAPGKEREGVALIFPVGSSTAYADSVKGRFTISQDSAKDTVYLQMNNLKPEDSGTYYCAAVSWGGRCNLETQTVTFWGQGTQVTVSS | 0.16 |

— paper PMC9082315 (2022)
